Test results published in paper PMC12518634 (2025).

How the values were obtained:
[1] = target: His-HDAC2, recombinant (UniProt Q92769 1-488); experiment: SPR
[2] = target: His-HDAC1, recombinant (human, UniProt Q13547 1-482); experiment: SPR
His-HDAC1, recombinant, sequence (Q13547 whole entry): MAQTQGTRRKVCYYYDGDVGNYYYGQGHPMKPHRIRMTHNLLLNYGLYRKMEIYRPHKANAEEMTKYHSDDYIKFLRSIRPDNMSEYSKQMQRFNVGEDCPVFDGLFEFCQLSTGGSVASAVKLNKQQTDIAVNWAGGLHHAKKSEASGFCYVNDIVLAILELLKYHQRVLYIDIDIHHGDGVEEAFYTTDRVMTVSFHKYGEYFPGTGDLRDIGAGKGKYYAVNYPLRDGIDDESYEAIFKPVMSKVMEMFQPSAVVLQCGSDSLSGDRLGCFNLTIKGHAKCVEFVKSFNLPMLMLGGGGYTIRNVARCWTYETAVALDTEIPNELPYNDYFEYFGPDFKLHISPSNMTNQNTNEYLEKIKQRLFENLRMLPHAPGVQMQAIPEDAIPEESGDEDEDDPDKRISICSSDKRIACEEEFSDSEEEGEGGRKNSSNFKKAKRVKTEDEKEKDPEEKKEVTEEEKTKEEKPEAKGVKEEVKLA

His-HDAC2, recombinant, sequence (Q92769 whole entry): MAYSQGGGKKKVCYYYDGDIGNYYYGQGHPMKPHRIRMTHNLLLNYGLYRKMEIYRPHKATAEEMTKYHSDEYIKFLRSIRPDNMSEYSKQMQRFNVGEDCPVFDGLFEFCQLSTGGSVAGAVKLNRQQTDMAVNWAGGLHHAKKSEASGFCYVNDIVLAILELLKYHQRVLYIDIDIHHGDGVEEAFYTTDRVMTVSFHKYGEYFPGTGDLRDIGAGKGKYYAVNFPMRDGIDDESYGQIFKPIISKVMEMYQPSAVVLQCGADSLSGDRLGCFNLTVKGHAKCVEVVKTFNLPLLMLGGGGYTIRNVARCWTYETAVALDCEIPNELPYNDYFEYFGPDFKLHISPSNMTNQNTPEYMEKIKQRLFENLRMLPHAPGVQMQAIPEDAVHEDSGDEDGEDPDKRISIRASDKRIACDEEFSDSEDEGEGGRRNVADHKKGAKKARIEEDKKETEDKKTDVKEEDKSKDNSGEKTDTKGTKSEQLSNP

B1: GST-PFKL, recombinant (enzyme)
chain: MAAVDLEKLRASGAGKAIGVLTSGGDAQGMNAAVRAVTRMGIYVGAKVFLIYEGYEGLVEGGENIKQANWLSVSNIIQLGGTIIGSARCKAFTTREGRRAAAYNLVQHGITNLCVIGGDGSLTGANIFRSEWGSLLEELVAEGKISETTARTYSHLNIAGLVGSIDNDFCGTDMTIGTDSALHRIMEVIDAITTTAQSHQRTFVLEVMGRHCGYLALVSALASGADWLFIPEAPPEDGWENFMCERLGETRSRGSRLNIIIIAEGAIDRNGKPISSSYVKDLVVQRLGFDTRVTVLGHVQRGGTPSAFDRILSSKMGMEAVMALLEATPDTPACVVTLSGNQSVRLPLMECVQMTKEVQKAMDDKRFDEATQLRGGSFENNWNIYKLLAHQKPPKEKSNFSLAILNVGAPAAGMNAAVRSAVRTGISHGHTVYVVHDGFEGLAKGQVQEVGWHDVAGWLGRGGSMLGTKRTLPKGQLESIVENIRIYGIHALLVVGGFEAYEGVLQLVEARGRYEELCIVMCVIPATISNNVPGTDFSLGSDTAVNAAMESCDRIKQSASGTKRRVFIVETMGGYCGYLATVTGIAVGADAAYVFEDPFNIHDLKVNVEHMTEKMKTDIQRGLVLRNEKCHDYYTTEFLYNLYSSEGKGVFDCRTNVLGHLQQGGAPTPFDRNYGTKLGVKAMLWLSEKLREVYRKGRVFANAPDSACVIGLKKKAVAFSPVTELKKDTDFEHRMPREQWWLSLRLMLKMLAQYRISMAAYVSGELEHVTRRTLSMDKGF
[1]
  Kd: 9.5 nM
[2]
  Kd: 2.18 nM
